Assay results published in patent US9296810 (Novartis, dated 2016).
Where a chain is given by its changes, count along the chain named.

B1: SEQ ID NO 17 (designed binder)
chain: VSDVPRDLEVVAATPTSLLISWDAPAVTVRYYRITYGQRVGKTKVHEFTVPGSKSTATIRGLKRGKDYTITVYAVTGRGDSPASSKPISINYFPET
B2: SEQ ID NO 22 (designed binder)
chain: VSDVPRDLEVVAATPTSLLISWDAPAVTVRYYRITYGKSHGHRQKHEFTVPGSKSTATISDYRQGGDYTITVYAVTGRGDSPASSKPISINYKGEL
B3: SEQ ID NO 16 (designed binder)
chain: VSDVPRDLEVVAATPTSLLISWDAPAVTVRYYRITYGITGKEKSFVEFTVPGSKSTATIRDVKKGKDYTITVYAVTGRGDSPASSKPISINYRAET
B4: SEQ ID NO 13 (designed binder)
chain: VSDVPRDLEVVAATPTSLLISWDAPAVTVRYYRITYGTSVDDRKLREFTVPGSKSTATISRLKRGRDYTITVYAVTGRGDSPASSKPISINYRAEN
B5: SEQ ID NO 15 (designed binder)
chain: B4 chain with T38S, S39R, V40A, D41S, D42H, R46T, R61G, R64T, A94T, N96H
B6: SEQ ID NO 10 (designed binder)
chain: VSDVPRDLEVVAATPTSLLISWDAPAVTVRYYRITYGKTGHKSSDHEFTVPGSKSTATIGGMKGGVDYTITVYAVTGRGDSPASSKPISINYRFER
B7: SEQ ID NO 33 (designed binder)
chain: VSDVPRDLEVVAATPTSLLISWDAPAVTVRYYRITYGVMHDKHPKKEFTVPGSKSTATISGLKRGRDYTITVYAVTGRGDSPASSKPISINYKSEA
B8: SEQ ID NO 7 (designed binder)
chain: VSDVPRDLEVVAATPTSLLISWDAPAVTVRYYRITYGKTEGHRHSHEFTVPGSKSTATISGLKHGDDYTITVYAVTGRGDSPASSKPISINYRMEK
B9: SEQ ID NO 27 (designed binder)
chain: VSDVPRDLEVVAATPTSLLISWDAPAVTVRYYRITYGLTKRKSLISEFTVPGSKSTATIIGLKAGKDYTITVYAVTGRGDSPASSKPISINYKTEN
B10: SEQ ID NO 18 (designed binder)
chain: VSDVPRDLEVVAATPTSLLISWDAPAVTVRYYRITYGHTAKTRHHHEFTVPGSKSTATICKSRRGSDYTITVYAVTGRGDSPASSKPISINYQAET
B11: SEQ ID NO 9 (designed binder)
chain: VSDVPRDLEVVAATPTSLLISWDAPAVTVRYYRITYGQLDKKHHDAEFTVPGSKSTATITRLKRGRDYTITVYAVTGRGDSPASSKPISINYSPER
B12: SEQ ID NO 31 (designed binder)
chain: VSDVPRDLEVVAATPTSLLISWDAPAVTVRYYRITYGEVHGHHTAHEFTVPGSKSTATIVRLKRGKDYTITVYAVTGRGDSPASSKPISINYCPER
B13: SEQ ID NO 12 (designed binder)
chain: VSDVPRDLEVVAATPTSLLISWDAPAVTVRYYRITYGRTKGKSKLKEFTVPGSKSTATIPGLKQGEDYTITVYAVTGRGDSPASSKPISINYMFER
B14: SEQ ID NO 25 (designed binder)
chain: VSDVPRDLEVVAATPTSLLISWDAPAVTVRYYRITYGEKPRKYRSSEFTVPGSKSTATIRHSKHGKDYTITVYAVTGRGDSPASSKPISINYMREI
B15: SEQ ID NO 34 (designed binder)
chain: VSDVPRDLEVVAATPTSLLITWDAPAVTVRYYRITYGVAGKTKPRSEFTVPGSKSTATIPHLKLGHDYTITVYAVTGRGDSPASSKPISINYRAEH
B16: SEQ ID NO 11 (designed binder)
chain: VSDVPRDLEVVAATPTSLLISWDAPAVTVRYYRITYGKKDRASHLKEFTVPGSKSTATIGHIKGGYDYTITVYAVTGRGDSPASSKPISINYSGEP
B17: SEQ ID NO 30 (designed binder)
chain: VSDVPRDLEVVAATPTSLLISWDAPAVTVRYYRITYGIPAKKHHTHEFTVPGSKSTATITGLKSGVDYTITVYAVTGRGDSPASSKPISINYRTET
B18: SEQ ID NO 24 (designed binder)
chain: VSDVPRDLEVVAATPTSLLISWDAPAVTVRYYRITYGEASKNHRQHEFTVPGSKSTATISRIKRGTDYTITVYAVTGRGDSPASSKPISINYSPES
B19: SEQ ID NO 26 (designed binder)
chain: VSDVPRDLEVVAATPTSLLISWDAPAVTVRYYRITYGKTARKYHMQEFTVPGSKSTATISGIKRGTDYTITVYAVTGRGDSPASSKPISINYNSEH
B20: SEQ ID NO 21 (designed binder)
chain: VSDVPRDLEVVAATPTSLLISWDAPAVTVRYYRITYGDSRHHPRAHEFTVPGSKSTATITGCKRGHDYTITVYAVTGRGDSPASSKPISINYRYEH
B21: SEQ ID NO 14 (designed binder)
chain: VSDVPRDLEVVAATPTSLLISWDAPAVTVRYYRITYGVLSSTKHLKEFTVPGSKSTATISGLKLGRDYTITVYAVTGRGDSPASSKPISINYRMES
B22: SEQ ID NO 23 (designed binder)
chain: B21 chain with L39M, S40G, S41D, H44K, L45V, S60E, G61R, L62I, M94K, S96H
B23: SEQ ID NO 32 (designed binder)
chain: B21 chain with V38M, L39I, S41G, T42D, H44R, L45R, K46R, S60D, G61R, M94L
B24: SEQ ID NO 28 (designed binder)
chain: VSDVPRDLEVVAATPTSLLISWDAPAVTVRYYRITYGKVKAKAPLVEFTVPGSKSTATISSLKTGKDYTITVYAVTGRGDSPASSKPISINYRYEG
B25: SEQ ID NO 19 (designed binder)
chain: VSDVPRDLEVVAATPTSLLISWDAPAVTVRYYRITYGYGAANRRAHEFTVPGSKSTATISGLKRGRDYTITVYAVTGRGDSPASSKPISINYRHEL
B26: SEQ ID NO 29 (designed binder)
chain: B25 chain with Y38D, G39R, A41K, R43T, A45I, H46K, H94L, L96G
B27: SEQ ID NO 76 (designed binder)
chain: VSDVPRDLEVVAATPTSLLISWDAPAVTVRYYRITYGESSGRYRQEFTVPGSKSTATISRYPHGVDYTITVYAVTGRGESPASSKPISINYAKNV
B28: SEQ ID NO 74 (designed binder)
chain: VSDVPRDLEVVAATPTSLLISWDAPAVTVRYYRITYGEYEPYGSQYQEFTVPGSKSTATISERQHAVDYTITVYAVTGRGESPASSKPISINYRRYE
B29: SEQ ID NO 72 (designed binder)
chain: VSDVPRDLEVVAATPTSLLISWDAPAVTVRYYRITYGERGGYSSQEFTVPGSKSTATISSRYRQVDYTITVYAVTGRGESPASSKPISINYQSYS
B30: SEQ ID NO 75 (designed binder)
chain: VSDVPRDLEVVAATPTSLLISWDAPAVTVRYYRITYGEYGGSQAQEFTVPGSKSTATISREYGSVDYTITVYAVTGRGESPASSKPISINYALGE
B31: SEQ ID NO 77 (designed binder)
chain: VSDVPRDLEVVAATPTSLLISWDAPAVTVRYYRITYGEYRRRARQEFTVPGSKSTATISEHEPLVDYTITVYAVTGRGESPASSKPISINYYSYY
B32: SEQ ID NO 79 (designed binder)
chain: VSDVPRDLEVVAATPTSLLISWDAPAVTVRYYRITYGERRRRYGQEFTVPGSKSTATISSRSRGVDYTITVYAVTGRGESPASSKPISINYLYPY
B33: SEQ ID NO 83 (designed binder)
chain: VSDVPRDLEVVAATPTSLLISWDAPAVTVRYYRITYGEAHEYYYQEFTVPGSKSTATISRSSSSVDYTITVYAVTGRGESPASSKPISINYYGRY
B34: SEQ ID NO 86 (designed binder)
chain: VSDVPRDLEVVAATPTSLLISWDAPAVTVRYYRITYGELPSQGRQEFTVPGSKSTATISYRRELVDYTITVYAVTGRGESPASSKPISINYGSSY
B35: SEQ ID NO 78 (designed binder)
chain: VSDVPRDLEVVAATPTSLLISWDAPAVTVRYYRITYGEQRARSRQEFTVPGSKSTATISEQRRRVDYTITVYAVTGRGESPASSKPISINYRALL
B36: SEQ ID NO 81 (designed binder)
chain: VSDVPRDLEVVAATPTSLLISWDAPAVTVRYYRITYGESHHYGPQEFTVPGSKSTATISLLGAHVDYTITVYAVTGRGESPASSKPISINYHGLY
B37: SEQ ID NO 73 (designed binder)
chain: VSDVPRDLEVVAATPTSLLISWDAPAVTVRYYRITYGERGYPGQEFTVPGSKSTATISEYSHSVDYTITVYAVTGRGESPASSKPISINYAQYQ
B38: SEQ ID NO 84 (designed binder)
chain: VSDVPRDLEVVAATPTSLLISWDAPAVTVRYYRITYGEAGYSGGQEFTVPGSKSTATISERAEYVDYTITVYAVTGRGESPASSKPISINYERRY
B39: SEQ ID NO 85 (designed binder)
chain: B38 chain with A39L, G40S, Y41R, G44S, E60G, R61S, A62Y, E63G, R93Q, R94S

target: Human Serum Albumin (HSA) (human, UniProt P02768 25-609); experiment: yeast display selection
Sequence (P02768 25-609 limits assumed): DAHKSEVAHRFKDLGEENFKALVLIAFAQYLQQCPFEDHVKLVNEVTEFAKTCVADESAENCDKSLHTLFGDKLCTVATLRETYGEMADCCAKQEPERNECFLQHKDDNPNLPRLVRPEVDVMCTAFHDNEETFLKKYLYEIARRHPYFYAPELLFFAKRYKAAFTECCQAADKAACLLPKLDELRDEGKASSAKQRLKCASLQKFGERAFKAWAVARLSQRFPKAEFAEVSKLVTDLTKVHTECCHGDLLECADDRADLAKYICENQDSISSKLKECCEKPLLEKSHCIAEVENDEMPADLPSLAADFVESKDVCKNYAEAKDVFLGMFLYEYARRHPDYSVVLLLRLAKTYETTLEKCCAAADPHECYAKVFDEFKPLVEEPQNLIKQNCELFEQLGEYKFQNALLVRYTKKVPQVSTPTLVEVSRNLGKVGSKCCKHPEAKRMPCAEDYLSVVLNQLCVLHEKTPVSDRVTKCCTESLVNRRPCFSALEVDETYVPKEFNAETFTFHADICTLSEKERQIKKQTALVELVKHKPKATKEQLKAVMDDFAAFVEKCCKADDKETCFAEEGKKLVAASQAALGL

| binding result | Binder |
| --- | --- |
| binds | B1 |
| binds | B2 |
| binds | B3 |
| binds | B4 |
| binds | B5 |
| binds | B6 |
| binds | B7 |
| binds | B8 |
| binds | B9 |
| binds | B10 |
| binds | B11 |
| binds | B12 |
| binds | B13 |
| binds | B14 |
| binds | B15 |
| binds | B16 |
| binds | B17 |
| binds | B18 |
| binds | B19 |
| binds | B20 |
| binds | B21 |
| binds | B22 |
| binds | B23 |
| binds | B24 |
| binds | B25 |
| binds | B26 |

target: T1, hen egg white lysozyme (hen, UniProt P00698 19-147, biotinylated (HEL-b); sites not stated); experiment: yeast display selection
T1 construct: also called lyzozyme; HEL-b (biotinylated)
T1 sequence (P00698 19-147 limits assumed): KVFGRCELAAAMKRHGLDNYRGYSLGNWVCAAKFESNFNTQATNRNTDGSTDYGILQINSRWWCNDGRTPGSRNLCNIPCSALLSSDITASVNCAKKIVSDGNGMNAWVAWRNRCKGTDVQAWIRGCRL

| binding result | Binder |
| --- | --- |
| binds | B27 |
| binds | B28 |
| binds | B29 |
| binds | B30 |
| binds | B31 |
| binds | B32 |
| binds | B33 |
| binds | B34 |
| binds | B35 |
| binds | B36 |
| binds | B37 |
| binds | B38 |
| binds | B39 |
